Ends that are not written are not given here.
T1: Myosin VI cargo-binding domain (CBD) with C-terminal mCerulean (human, UniProt Q9UM54 991-1294, C-terminal mCerulean omitted. Limits are those printed for the Kd FRET assay (CBD 991-1294, LI+SI isoform of 1294 aa); the construct list instead gives 1030-1284.)
T1 chain: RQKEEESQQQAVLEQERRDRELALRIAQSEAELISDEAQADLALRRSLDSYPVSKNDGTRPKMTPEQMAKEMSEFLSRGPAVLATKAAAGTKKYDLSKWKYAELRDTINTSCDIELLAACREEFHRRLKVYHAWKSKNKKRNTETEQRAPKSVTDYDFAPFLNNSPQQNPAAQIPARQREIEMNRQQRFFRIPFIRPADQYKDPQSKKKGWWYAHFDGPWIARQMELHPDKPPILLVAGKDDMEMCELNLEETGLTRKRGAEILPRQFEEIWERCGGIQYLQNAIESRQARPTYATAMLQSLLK

B1: Dab2 myosin interacting region (MIR) with C-terminal eGFP (domain or fragment, human, UniProt P98082 675-713, looked up)
chain: SSGTLSAFASYFNSKVGIPQENADHDDFDANQLLNKINE
notes: Dab2, human, a.a; fluorophore joined through a flexible (Gly-Ser-Gly) x 2 repeat; Held on DNA nanotubes or surfaces through a GFP nanobody (a tool); also called Dab2-MIR-GFP; GFP-tagged Dab2 MIR; not shown: eGFP, C-terminal, kept
B2: Dab2 myosin interacting region (MIR) with C-terminal mCitrine (domain or fragment, human, UniProt P98082 675-713, looked up)
chain: SSGTLSAFASYFNSKVGIPQENADHDDFDANQLLNKINE-mCitrine
notes: Dab2, human, a.a; fluorophore joined through a flexible (Gly-Ser-Gly) x 2 repeat; Cloned into pBiex1; also called DAB2-MIR-mCit; mCit-MIR; not shown: mCitrine, C-terminal, kept
B3: Cy3-labeled full-length myosin VI (natural protein, human, UniProt Q9UM54 1-1294, looked up)
chain: MEDGKPVWAPHPTDGFQMGNIVDIGPDSLTIEPLNQKGKTFLALINQVFPAEEDSKKDVEDNCSLMYLNEATLLHNIKVRYSKDRIYTYVANILIAVNPYFDIPKIYSSEAIKSYQGKSLGTRPPHVFAIADKAFRDMKVLKMSQSIIVSGESGAGKTENTKFVLRYLTESYGTGQDIDDRIVEANPLLEAFGNAKTVRNNNSSRFGKFVEIHFNEKSSVVGGFVSHYLLEKSRICVQGKEERNYHIFYRLCAGASEDIREKLHLSSPDNFRYLNRGCTRYFANKETDKQILQNRKSPEYLKAGSMKDPLLDDHGDFIRMCTAMKKIGLDDEEKLDLFRVVAGVLHLGNIDFEEAGSTSGGCNLKNKSAQSLEYCAELLGLDQDDLRVSLTTRVMLTTAGGTKGTVIKVPLKVEQANNARDALAKTVYSHLFDHVVNRVNQCFPFETSSYFIGVLDIAGFEYFEHNSFEQFCINYCNEKLQQFFNERILKEEQELYQKEGLGVNEVHYVDNQDCIDLIEAKLVGILDILDEENRLPQPSDQHFTSAVHQKHKDHFRLTIPRKSKLAVHRNIRDDEGFIIRHFAGAVCYETTQFVEKNNDALHMSLESLICESRDKFIRELFESSTNNNKDTKQKAGKLSFISVGNKFKTQLNLLLDKLRSTGASFIRCIKPNLKMTSHHFEGAQILSQLQCSGMVSVLDLMQGGYPSRASFHELYNMYKKYMPDKLARLDPRLFCKALFKALGLNENDYKFGLTKVFFRPGKFAEFDQIMKSDPDHLAELVKRVNHWLTCSRWKKVQWCSLSVIKLKNKIKYRAEACIKMQKTIRMWLCKRRHKPRIDGLVKVGTLKKRLDKFNEVVSVLKDGKPEMNKQIKNLEISIDTLMAKIKSTMMTQEQIQKEYDALVKSSEELLSALQKKKQQEEEAERLRRIQEEMEKERKRREEDEKRRRKEEEERRMKLEMEAKRKQEEEERKKREDDEKRIQAEVEAQLARQKEEESQQQAVLEQERRDRELALRIAQSEAELISDEAQADLALRRSLDSYPVSKNDGTRPKMTPEQMAKEMSEFLSRGPAVLATKAAAGTKKYDLSKWKYAELRDTINTSCDIELLAACREEFHRRLKVYHAWKSKNKKRNTETEQRAPKSVTDYDFAPFLNNSPQQNPAAQIPARQREIEMNRQQRFFRIPFIRPADQYKDPQSKKKGWWYAHFDGPWIARQMELHPDKPPILLVAGKDDMEMCELNLEETGLTRKRGAEILPRQFEEIWERCGGIQYLQNAIESRQARPTYATAMLQSLLK
modifications: Cy3 label
notes: Myosin VI, human, the isoform containing both the long insert (LI) and short insert (SI); probably Myosin VI FL-SNAP (C-terminal SNAP, FLAG and 6X-His tags); Assay buffers held 10 uM calmodulin; The surface gliding assays used dark myosin VI FL-FLAG; also called Cy3-myosin VI; myosin VI FL

Columns and labels:
myosin VI CBD = myosin VI CBD (UniProt Q64331); conditions: cited from earlier work
[1] = molecular target: B3; assay: single-molecule TIRF binding assay; adaptor-GFP held through GFP nanobody-SNAP on DNA nanotubes; Cy3-labeled myosin VI at 50 pM in AB.BSA.Cam; 20 Hz for 3 min; bound and rebinding times fitted to a single-exponential decay; conditions: both partners purified
[2] = molecular target: T1, Myosin VI cargo-binding domain (CBD) …; assay: FRET or BRET; bimolecular FRET titration in solution; CBD-mCer held constant at 30 nM, increasing DAB2-MIR-mCit titrated in; excitation 430 nm, cross-excitation spectra subtracted; conditions: both partners purified
[3] = molecular target: B1; assay: single-molecule TIRF binding assay; adaptor-GFP held through GFP nanobody-SNAP on DNA nanotubes; Cy3-labeled myosin VI at 50 pM in AB.BSA.Cam; 20 Hz for 3 min; bound and rebinding times fitted to a single-exponential decay; conditions: both partners purified

Chain of myosin VI CBD (Q64331 1137-1262): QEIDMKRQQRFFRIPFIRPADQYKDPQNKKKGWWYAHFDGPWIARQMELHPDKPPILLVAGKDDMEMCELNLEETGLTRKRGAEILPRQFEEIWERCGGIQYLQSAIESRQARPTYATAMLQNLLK

Molecule: Dab2 MIR (from UniProt P98082)
- Kd (myosin VI CBD): 500 nM

Molecule: B1
- koff [1]: 0.91 s⁻¹

Molecule: B2
- Kd [2]: ~184 nM

Molecule: B3
- half-life of the interaction [3]: ~1.2 s
